Experimental data as given in the DeepSol protein solubility set.

Test: soluble on expression in E. coli; label from the status in PepcDB or PDB records

Sequence | soluble on expression in E. coli
MQNSALKAWLDSSYLSGANQSWIEQLYEDFLTDPDSVDANWRSTFQQLPGTGVKPDQFHSQTREYFRRLAKDASRYSSTISDPDTNVKQVKVLQLINAYRFRGHQHANLDPLGLWQQDKVADLDPSFHDLTEADFQETFNVGSFASGKETMKLGELLEALKQTYCGPIGAEYMHITSTEEKRWIQQRIESGRATFNSEEKKRFLSELTAAEGLERYLGAKFPGAKRFSLEGGDALIPMLKEMIRHAGNSGTREVVLGMAHRGRLNVLVNVLGKKPQDLFDEFAGKHKEHLGTGDVKYHMGFSSDFQTDGGLVHLALAFNPSHLEIVSPVVIGSVRARLDRLDEPSSNKVLPITIHGDAAVTGQGVVQETLNMSKARGYEVGGTVRIVINNQVGFTTSNPLDARSTPYCTDIGKMVQAPIFHVNADDPEAVAFVTRLALDFRNTFKRDVFIDLVCYRRHGHNEADEPSATQPLMYQKIKKHPTPRKIYADKLEQEKVATLEDATEMVNLYRDALDAGDCVVAEWRPMNMHSFTWSPYLNHEWDEEYPNKVEMKRLQELAKRISTVPEAVEMQSRVAKIYADRQAMAAGEKLFDWGGAENLAYATLVDEGIPVRLSGEDSGRGTFFHRHAVIHNQSNGSTYTPLQHIHNGQGAFRVWDSVLSEEAVLAFEYGYATAEPRTLTIWEAQFGDFANGAQVVIDQFISSGEQKWGRMCGLVMLLPHGYEGQGPEHSSARLERYLQLCAEQNMQVCVPSTPAQVYHMLRRQALRGMRRPLVVMSPKSLLRHPLAVSSLEELANGTFLPAIGEIDELDPKGVKRVVMCSGKVYYDLLEQRRKNNQHDVAIVRIEQLYPFPHKAMQEVLQQFAHVKDFVWCQEEPLNQGAWYCSQHHFREVIPFGASLRYAGRPASASPAVGYMSVHQKQQQDLVNDALNVE | soluble
MGSDKIHHHHHHMVEKLKPRYSVVWTNKIAEVPQNAWNALAMPLKTPFLEWEWLNNLETSQSATAKTGWLPNHLTLWRDRTLIAAAPLYLKGHSSGEFVFDHQWAELADRIGVQYYPKLLGMTPFTPAEGYRFLIAPGEDEDEITAMMVHEIDTFCSKNRISGCHFLYVDPQWRPMLERHGFTTWLHHSYVWENAGFKTFDDYLKVFNANQRRNIKRERKAVEKAGLRLQPLSGDEIPYSLFPSMYQFYADTCDKFGWWGSKYLTQRFFEQLHNDYRHRVLFVAAYSEEDNSHPLGMSFCLFKGDKLYGRYWGSFQEIDCLHFDACYYAPIEWAIANGIQIFDPGAGGRHKKRRGFPAMPNHSLHRFYNNRLGQIIRPYIKEVNQLEQQEIEAINAELPFSNRDS | not soluble
MQSFNSGSTKIHNAFPEESTRPQKAEGNTAMNILVLGSDSRGSSDADVEANTATDQRADTLMLVHVPADRKKTYAISLMRDLWIDIPGVGESKINAALAYGGVPLMVQTVESLLQQRIDHVAMIDFQGFKGLTDALGGVEVDVRIPFAPSSGPKAGQVYDAGKQTLNGDEALAFVRERKAFSDGDYQRVRNQQAYLKAIIGKVIARETLTNPVTISNMVSAVSPFVSVDKDFDAAAIGSLALSMKDVRAQDTVMFTLPTLGTGTSPDGQSIVLADTTAIADVTAALAKDQVDAYITAHALDKGFLEHHHHHH | soluble
NRWGSPWAVKPEDKAKYDAIFDSLSPVNGFLSGDKVKPVLLNSKLPVDILGRVWELSDIDHDGMLDRDEFAVAMFLVYCALEKEPVPMSLPPALVPPSKRKTWLEI | soluble
KPPDPPNRVPEKKVVETSAFGHHVQLVNREGKAVGFIEIKESDDEGLDIHISANSLRPGASLGFHIYEKGSCVRPDFESAGGHFNPLNKEHGFNNPMGHHAGDLPNLEVGADGKVDVIMNAPDTSLKKGSKLNILDEDGSAFIIHEQADDYLTNPSGNSGARIVCGALLGNNEKQ | soluble
MTEYNIGAKIKKLRLAKKLTLQAVARETGFSPALISQIENNNVSPPIATLSKIAKFFDVKISLFFSEDEEEYRYEVVRRGERKVIPRVISRAGTSQGYSYESLSFRKQNKKMEPFLLTVTEKAAEENTYNHDGEEFLFVMKGTAELLLEDERVILEEGDCVYFDSSLKHRLLSRDGSEVQVLAVVTR | not soluble
MGSDKIHHHHHHMTQKLPRQATASEESLMRIFTVPEDAESTLSIIEQKLSEDLAGFLGDSIAALEKPLSEIETDFQAFKIPTQPRFVSDYTDEIMQNLVAHSVHTSAPSFIGHMTSALPYFVLPLSKMMVGLNQNLVKIETSKAFTPLERQVLGMMHHLIYAQNTDFYQSWMHSANHSLGAFCSGGTVANITALWIARNQLLKADGEFKGVTREGLLKALRYYGYDDLAILVSERGHYSLGKAVDLLGIGRDNIISIPTDSHNKVDIAKMRKAALELARKNIKVLAIVGVAGTTETGNVDPLIELAALAKELNCHFHVDAAWGGASLLSNKYRHLLAGIELADSVTIDAHKQMYVPMGAGMVLFKNPEFAHAIAHHAEYILRRGSKDLGSQTLEGSRPGMAMLVHACLQIIGLDGYEILINNSIEKARYFAEQIKAHRDFELVTEPELCLLTYRYVPAKVQAAMQVAIEQGDTAKLARFNELLDGLTQFIQKHQREQGKSFVSRTRISPARYFRQATVVFRVVLANPLTSHDILNQVLVEQSEIAALDKEFLPALLAMVAE | not soluble
MGSDKIHHHHHHENLYFQGMTQFKLIGFDLDGTLVNSLPDLALSINSALKDVNLPQASENLVMTWIGNGADVLSQRAVDWACKQAEKELTEDEFKYFKRQFGFYYGENLCNISRLYPNVKETLEALKAQGYILAVVTNKPTKHVQPILTAFGIDHLFSEMLGGQSLPEIKPHPAPFYYLCGKFGLYPKQILFVGDSQNDIFAAHSAGCAVVGLTYGYNYNIPIAQSKPDWIFDDFADILKITQ | soluble
MTPIEAKFARLSTDHAPDQEVRQGNAGLDGLLRGDTLPGTPVDFSHGDVNTSAFAPTPGSLQEFVQGVERGGEQAYTEYRGAADLRLRVAAHLAEFTGAPVDGANELIITPGTQGALFLAIASSVTAGDKVAIVRPDYFANRKLVEFLGDEIVPVDMRHLERDSGAGLDLDQLEAAFKAGVRTFLFSNPNNPAGVVYSPEEIAQIADLARHYDATVIVDQLYSRLLYTGTRYTHLRALPQAPANVITIMGPSKTESLSGYRLGVAFGAAHLIDRMEKLQAIVSLRAPGYCQAVLRTWFQEPAGWMNERIAQHQAIRDDLIRVLRAVPGLAVRAPEAGSYLFPRLPRLAVGLHDFVRILRTQAGVTVTPGTEFSPHADDSIRLNFSQNHAAAVQAIERTAQLIERYRA | not soluble
MNIPQLTALCLRYHGVLLDASEEVVHVAVVDAPSHELLDALHFATTKRIEITCWTRQQMEGHASRTQQTLPVAVQEKHQPKAELLTRTLQSALEQRASDIHIEPADNAYRIRLRIDGVLHPLPDVSPDAGVALTARLKVLGNLDIAEHRLPQDGQFTVELAGNAVSFRIATLPCRGGEKVVLRLLQQVGQALDVNTLGMQPLQLADFAHALQQPQGLVLVTGPTGSGKTVTLYSALQKLNTADINICSVEDPVEIPIAGLNQTQIHPRAGLTFQGVLRALLRQDPDVIMIGEIRDGETAEIAIKAAQTGHLVLSTLHTNSTCETLVRLQQMGVARWMLSSALTLVIAQRLVRKLCPHCRRQQGEPIHIPDNVWPSPLPHWQAPGCVHCYHGFYGRTALFEVLPITPVIRQLISANTDVESLETHARQAGMRTLFENGCLAVEQGLTTFEELIRVLGMPHGE | soluble
MTIKIALLGFGTVAKGIPYLLKENQHKLLSLEGEDIVIDKVLVRDNESRQRFINQGFTYNFVTEINTILQDSQIDIVVELMGGIEPAKTYLSQALGFGKHIVTANKDLIALHGKELMDLADARGLALFYEGAVAGGIPILRTLSHSFASDKMTRLLGILNGTSNFMLTKMFEEGW | not soluble
DHWLRQDLRQMFIEELGSNAREIIQFVVGSHDIGKATPLFQYQKAQKGEVWDSIRYAIDRTGRYQKPLPSSYLVKKTSGGPNRHEQWSSFASKNEYLKPSAAAKENWIGLAIGGHHGRFEPVGYGRHQRKAAEDLAKSGWSAAQQDLLRALEKASGITRASLPSELSPELTLVLSGLTILADRISSTESFVITGARMIDDGTLHLATPIDWLKTRKLDSEKHVAKTVGIYHGWNNHESAIHSILKGYDPRPLQTIALQNQVGLLNLMAPTGNGKTEAAILRHSLKENDRLIFLLPTQATSNAIMRRVQGIYSDTPNVAALAHSLASVEDFYQTPLSVFDDHYDPSKEQFESSMSG | not soluble
MQYHEIGKTGMKVSSLSFGASSLGGVFHDLKEKEGIQAVFTAIEAGMNFIDVSPYYGHYKAETVLGKALKDIPRDRYYLSTKVGRYGKDGVNTWDYSAKRATESVYESMERLNIDFIDLINVHDIEFADLNQVVNETLPALVELREKGVVGHVGITDLQLENLKWVIDRSPSGTIESVLSFCHYCLCDDKLADFLDYFESKEIGVINASPLSMGLLSERGVPVWHPAPKPLVDACRKAMEHCKAKNYPIEKLAMQFSVSNPKIATTLFSTTNPENVKKNIGFIEEPVDWELVREVREIIGEQQRVSWANS | not soluble
MGSDKIHHHHHHMKLNRIPVVFILVLQFLSCMRKDEVLSTDPSDRLEFSEDTVFFDTLFSSVGSITKRLLVYNPGKNKIRISSVTLAGGSNSAYSVIVNGLNGPSISDIDIRGNDSIYVLVKVLIDPSNQDLPFLVSDSILFYTNTNRQKVLLSAYGQDAHFFGKESIACDAVWVNDKPYVLYDTLQVNTGCTLTIQPGCKIYFHTAAALNVRGTLIAQGSSSEPLLFASDKLSKTAQDDRGQWGGLIFQSSSSGNVISWATIRNSSTAIKLFPVIDADTIAELSLDHTFLLHASVRLIDAQEVDLAGSNLVLSDCPKALLKHTAGCGVWKHCTFANYSSGFFREETNLVLGSNMGSLKMYVLNSILWGDKSNEVTANNTPSLSLQSCIWRSAYMGTNTNVITSNPLFSKPSAFDFSLTAGSSAIDLCTGVGVPDDIAAGNRDSTPDAGAYEFK | not soluble
MSLADSTELTTSATLGAQDAMAFGISEDPAFFQILSANLYSNQKLAMVRETLCNSWDAHIEGNKTDIPIHVTIDKDGFLIFRDYGSGIPKDKIQEVYGVYGASTKKANTASTGGFGLGCKSPMAYTDSFTVTSMCDGTKTVYHIAKSSVETNGKPGIIPIVSVPTEESGLEVKIQLQSEDILEIDSYIRAIVLHGEIKCIYCNQYTGPNTVELLPVLGMSFEPGSYNLDHSTWHKYYMGGHSIFIRYGNVMYPALDTPATHEALKLVKQFMQVINCSRIVVQAAPSSLAVAPSRETLSSQKMTEDGIVNLAVALVDKMEADIKARLPNAIEYIGKAIKEYSPHRFEVNSYLPYTNLVPDVIVSRYMSSTLFSKQYAHLCKKWGNMEIDRQLEHPALAHFSGEGHHHHHH | soluble
MGSDKIHHHHHHMGLAKTRSAAISGVTGVIVDVEANIGAGLPGTYIVGLADAAVAEARQRIKTAVNNSELPWPKTKVIVNLSPASLRKNGAQFDLGICMAIMAASGMHNPDCRDIENTLFLGEIGLDGAIKPISGLVPALLAARGAEIRNVVIPWGNAAEAMAVIDDSAMNVLVARSISEATEWLKGKDDLIAAHDVILDEHATKKQPHKVGDMQDVVGQSDAKKAAEIAVAGGHNIVMIGPPGSGKSMIAQRMAGLLPALTHTEMIEATAIHSVMGQAFNGPMTHPPFVAPHHSITKAALLGGGSGNLQPGAASLAHTGVLFLDEVSEIPANILDCLRMPLECGEIKLMRHRREVTFPARFQLVMATNPCRCAAELPSECRCSATTRARYLSNISGPLRDRLDIFVRTHAQGAVISDANQESSKSIAERVQSARERSEHRWRTAGFTVTTNAAMDPYHLRRHFPADEASMALLSSYLGDGELSQRGVDRALKVAWTLCDLEGKTRPDLGHTAYALELRDDCIRENAA | not soluble
